T1: MUT-8^NTD (1–235), purified (Caenorhabditis elegans, UniProt Q19672 1-235)
T1 construct: C. elegans MUT-8 N-terminal domain, residues 1-235
T1 sequence (looked up): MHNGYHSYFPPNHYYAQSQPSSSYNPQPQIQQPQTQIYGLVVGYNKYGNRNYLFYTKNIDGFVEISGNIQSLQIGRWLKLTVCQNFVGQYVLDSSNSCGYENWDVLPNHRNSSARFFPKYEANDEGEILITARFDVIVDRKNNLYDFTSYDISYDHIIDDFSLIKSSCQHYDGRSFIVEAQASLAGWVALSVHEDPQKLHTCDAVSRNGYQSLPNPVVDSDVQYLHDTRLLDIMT

T2: EXD3 NTD-EXO(D399A) (Homo sapiens, UniProt Q8N9H8 1-582, D399A)
T2 sequence: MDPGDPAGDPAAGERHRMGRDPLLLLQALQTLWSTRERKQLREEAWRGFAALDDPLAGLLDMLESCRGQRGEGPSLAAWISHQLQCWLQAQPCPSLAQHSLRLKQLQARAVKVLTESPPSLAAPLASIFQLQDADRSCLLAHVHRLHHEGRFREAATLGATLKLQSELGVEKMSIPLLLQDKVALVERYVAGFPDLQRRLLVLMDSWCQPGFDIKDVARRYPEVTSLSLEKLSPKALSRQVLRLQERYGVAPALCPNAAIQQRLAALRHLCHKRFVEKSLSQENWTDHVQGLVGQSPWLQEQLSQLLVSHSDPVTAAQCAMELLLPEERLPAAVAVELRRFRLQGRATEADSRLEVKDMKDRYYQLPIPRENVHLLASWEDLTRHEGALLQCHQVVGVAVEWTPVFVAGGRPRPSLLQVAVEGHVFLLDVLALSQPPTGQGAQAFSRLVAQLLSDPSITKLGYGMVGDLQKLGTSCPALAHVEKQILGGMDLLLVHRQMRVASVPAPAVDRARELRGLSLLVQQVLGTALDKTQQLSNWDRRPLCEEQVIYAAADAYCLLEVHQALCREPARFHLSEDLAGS

T3: EXD3 FL(D399A) (Homo sapiens, UniProt Q8N9H8 1-876, D399A)
T3 sequence: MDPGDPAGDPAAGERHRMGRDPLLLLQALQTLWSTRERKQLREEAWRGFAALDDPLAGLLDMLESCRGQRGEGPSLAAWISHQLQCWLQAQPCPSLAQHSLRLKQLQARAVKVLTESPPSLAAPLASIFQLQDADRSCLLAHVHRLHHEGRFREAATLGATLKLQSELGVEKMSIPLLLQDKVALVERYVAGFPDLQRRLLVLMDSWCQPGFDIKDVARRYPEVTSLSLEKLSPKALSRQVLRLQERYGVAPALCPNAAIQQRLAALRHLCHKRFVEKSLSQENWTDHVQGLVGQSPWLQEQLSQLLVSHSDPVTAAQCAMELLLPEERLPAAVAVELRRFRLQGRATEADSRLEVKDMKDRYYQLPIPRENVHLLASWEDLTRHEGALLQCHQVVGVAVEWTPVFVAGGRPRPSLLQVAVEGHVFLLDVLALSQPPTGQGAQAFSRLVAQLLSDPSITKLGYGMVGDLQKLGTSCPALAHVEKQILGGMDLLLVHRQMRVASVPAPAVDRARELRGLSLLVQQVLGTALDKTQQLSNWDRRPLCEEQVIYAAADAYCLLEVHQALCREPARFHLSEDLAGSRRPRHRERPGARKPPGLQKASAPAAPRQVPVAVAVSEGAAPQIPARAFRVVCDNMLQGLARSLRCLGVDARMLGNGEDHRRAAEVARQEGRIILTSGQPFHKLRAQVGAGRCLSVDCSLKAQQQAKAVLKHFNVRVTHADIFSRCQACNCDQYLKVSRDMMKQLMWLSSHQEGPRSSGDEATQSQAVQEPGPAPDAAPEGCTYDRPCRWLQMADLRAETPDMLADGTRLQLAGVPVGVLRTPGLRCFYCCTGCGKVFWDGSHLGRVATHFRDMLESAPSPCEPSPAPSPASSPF

T4: MUT-7 FL (Caenorhabditis elegans, UniProt P34607 1-910)
T4 sequence: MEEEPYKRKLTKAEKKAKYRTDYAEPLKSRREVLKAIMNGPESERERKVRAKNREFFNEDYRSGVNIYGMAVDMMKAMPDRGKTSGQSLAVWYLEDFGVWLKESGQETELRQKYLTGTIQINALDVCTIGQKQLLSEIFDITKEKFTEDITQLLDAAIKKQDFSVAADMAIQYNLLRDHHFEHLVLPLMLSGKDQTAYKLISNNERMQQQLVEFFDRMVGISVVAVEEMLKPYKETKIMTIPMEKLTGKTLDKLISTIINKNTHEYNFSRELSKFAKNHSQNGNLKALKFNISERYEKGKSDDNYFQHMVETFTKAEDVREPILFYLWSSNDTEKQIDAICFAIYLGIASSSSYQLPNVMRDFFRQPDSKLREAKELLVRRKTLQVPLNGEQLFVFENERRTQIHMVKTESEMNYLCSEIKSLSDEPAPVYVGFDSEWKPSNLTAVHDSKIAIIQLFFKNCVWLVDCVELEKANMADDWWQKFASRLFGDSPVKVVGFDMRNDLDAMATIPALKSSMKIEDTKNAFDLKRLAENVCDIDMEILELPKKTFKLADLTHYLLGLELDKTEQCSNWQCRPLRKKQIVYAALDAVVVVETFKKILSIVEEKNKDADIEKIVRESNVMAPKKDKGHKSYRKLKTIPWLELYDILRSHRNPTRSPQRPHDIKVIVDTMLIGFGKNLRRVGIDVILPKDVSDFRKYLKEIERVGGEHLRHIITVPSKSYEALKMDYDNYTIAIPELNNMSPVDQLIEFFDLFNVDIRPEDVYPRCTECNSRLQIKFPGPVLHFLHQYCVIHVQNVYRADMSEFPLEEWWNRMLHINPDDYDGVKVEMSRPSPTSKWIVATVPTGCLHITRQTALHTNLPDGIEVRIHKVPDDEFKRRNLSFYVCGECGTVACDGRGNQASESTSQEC

T5: MUT-7 NTD-EXO (Caenorhabditis elegans, UniProt P34607 1-625)
T5 sequence: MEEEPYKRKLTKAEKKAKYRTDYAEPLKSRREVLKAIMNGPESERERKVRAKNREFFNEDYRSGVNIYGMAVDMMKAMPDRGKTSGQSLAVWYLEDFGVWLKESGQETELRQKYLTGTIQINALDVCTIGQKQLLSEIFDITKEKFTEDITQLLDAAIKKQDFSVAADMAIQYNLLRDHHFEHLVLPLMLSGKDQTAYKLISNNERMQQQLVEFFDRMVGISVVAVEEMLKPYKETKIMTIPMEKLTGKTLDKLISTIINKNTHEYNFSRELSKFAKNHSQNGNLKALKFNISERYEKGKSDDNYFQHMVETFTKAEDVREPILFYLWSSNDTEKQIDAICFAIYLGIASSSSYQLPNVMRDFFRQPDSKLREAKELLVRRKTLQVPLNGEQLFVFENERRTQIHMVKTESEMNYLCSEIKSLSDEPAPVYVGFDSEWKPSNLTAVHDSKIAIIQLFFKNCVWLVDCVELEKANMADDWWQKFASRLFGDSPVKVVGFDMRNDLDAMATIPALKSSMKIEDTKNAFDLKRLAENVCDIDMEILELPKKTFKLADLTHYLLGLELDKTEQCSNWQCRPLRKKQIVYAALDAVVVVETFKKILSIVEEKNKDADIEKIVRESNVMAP


Key:
[1] = molecular target: T1, MUT-8^NTD (1–235), purified; experiment: ITC; isothermal titration calorimetry of MUT-8^NTD and MUT-16^584–724; conditions: both partners purified
EXD3 NTD-EXO(D399A) = molecular target: T2, EXD3 NTD-EXO(D399A); experiment: fluorescence polarization; 250 mM NaCl; Hill h 1.1; FP, 50 nM RNA, 30 min, room temperature; C. elegans proteins: 20 mM HEPES/NaOH pH 7.5, 150 mM NaCl, 10% glycerol, 5 mM EDTA; human proteins: 20 mM HEPES/NaOH pH 7.5, 250 mM NaCl; conditions: protein: recombinant; label: 5'-FAM; single strand
EXD3 FL(D399A) = molecular target: T3, EXD3 FL(D399A); experiment: fluorescence polarization; 250 mM NaCl; Hill h 1.029; FP, 50 nM RNA, 30 min, room temperature; C. elegans proteins: 20 mM HEPES/NaOH pH 7.5, 150 mM NaCl, 10% glycerol, 5 mM EDTA; human proteins: 20 mM HEPES/NaOH pH 7.5, 250 mM NaCl; conditions: protein: recombinant; label: 5'-FAM; single strand
MUT-7 FL = molecular target: T4, MUT-7 FL; experiment: fluorescence polarization; 5 mM EDTA, 150 mM NaCl; Hill h 1.195; FP, 50 nM RNA, 30 min, room temperature; C. elegans proteins: 20 mM HEPES/NaOH pH 7.5, 150 mM NaCl, 10% glycerol, 5 mM EDTA; human proteins: 20 mM HEPES/NaOH pH 7.5, 250 mM NaCl; conditions: protein: recombinant; tags: His10-MBP-3C (N), 3C cleavage in purification; label: 5'-FAM; single strand
MUT-7 NTD-EXO = molecular target: T5, MUT-7 NTD-EXO; experiment: fluorescence polarization; 5 mM EDTA, 150 mM NaCl; Hill h 1.491; FP, 50 nM RNA, 30 min, room temperature; C. elegans proteins: 20 mM HEPES/NaOH pH 7.5, 150 mM NaCl, 10% glycerol, 5 mM EDTA; human proteins: 20 mM HEPES/NaOH pH 7.5, 250 mM NaCl; conditions: protein: recombinant; label: 5'-FAM; single strand

| Binder | Kd [1] | Kd (EXD3 NTD-EXO(D399A)) | Kd (EXD3 FL(D399A)) | Kd (MUT-7 FL) | Kd (MUT-7 NTD-EXO) |
| --- | --- | --- | --- | --- | --- |
| MUT-16^584–724 (domain or fragment, Caenorhabditis elegans, UniProt O62011 584-724, looked up, numbers count on the longer isoform B0379.3a.1 (O62011); an untagged form was purified for CD; source: E. coli BL21(DE3) derivative; co-expressed with MBP-tagged MUT-8 constructs, in lysate; co-expressed with MUT-8^NTD and purified as complex; purified) KKKSESSATDTSNTPPVDTVNVALPTPVVESSSTTAAPSIPVSTRPEVVVPPENPAPLREVGNFYSKSNHDEDRRNVQLPFTPADTHKPIKVAPKEPVRNPLLKERPSANGFINRRLPSHPAPPPVNQSQPANQPMQTAVY | ~13 µM |  |  |  |  |
| GUUGAUUGAAGAGUUC (ssRNA) [16-mer ssRNA] |  | 11.2 µM | 1.86 µM | 2.33 µM | 18.7 µM |
